Experiments:
[1] = target: T1, Prdx6 (Mus musculus, UniProt O08709); experiment: aiPLA2 (Prdx6-PLA2) activity of mouse lung homogenate after IT or IV injection of PIP; assay type: in vivo; set-up: key to aiPLA2 activity, figure in parentheses (0 h = 100): Prdx6-PLA2 activity as % of 0 h value (0 h = 100); settings: for Prdx6-PLA2 activity of mouse lung homogenate: Table 6; for aiPLA2 activity of mouse lung: 24 hours after IV injection, 2 μg/g, liposomes only 8.81
T1 construct: from tissue; host or cells: mouse lung homogenate (wild type mice)
T1 sequence (O08709 1-224): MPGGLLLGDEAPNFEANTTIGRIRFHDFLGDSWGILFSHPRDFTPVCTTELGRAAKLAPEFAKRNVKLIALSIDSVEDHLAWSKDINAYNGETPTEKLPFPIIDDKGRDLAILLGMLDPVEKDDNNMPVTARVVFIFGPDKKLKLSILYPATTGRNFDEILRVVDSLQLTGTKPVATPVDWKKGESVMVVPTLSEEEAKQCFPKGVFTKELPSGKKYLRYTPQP
Procedure: FIG. 6: PIP-2 in liposomes was administered to mice either intratracheally (IT) or intravenously (IV) at 0 time. Lungs were harvested at intervals between 4 and 72 h after the PIP-2 administration, homogenized, and analyzed for Prdx6-PLA2 activity. PIP-2 is effective by either the IT or IV route with a calculated ½ time for recovery of ˜50 h. Results are mean+SE for N=3-4.
PIP-2 in liposomes injected IV or IT inhibits Prdx6 activity of the lung homogenate. Maximal inhibition was seen within 4 hours after administration of PIP-2. Recovery from inhibition began at ˜36 hours and was complete by 48 hours. Results are similar for PIP-1,2,4 (PIP-3 and -5 were not tested). […] Effectiveness requires liposomes for peptide delivery. Inhibition after IT or IV administration was similar.

[2] = tested on: NADPH oxidase (NOX2); experiment: H2O2 production (Amplex red) of perfused lung 5 min after PIP-2 in saline or liposomes; assay type: in vivo, mouse; settings: IT or IV
Procedure: FIGS. 1A and 1B: Wild type C57Bl/6 mice at age 8-10 weeks were injected with 2 ug/g body wt of PIP-2 either through an intratracheal catheter (IT) or intravenously (IV). The injected peptide was dissolved in saline or was incorporated into unilamellar liposomes consisting of dipalmitoyl phosphatidylcholine (DPPC), egg phosphatidylcholine (PC), phosphatidylglycerol (PG), and cholesterol (molar ratio of lipids, 50:25:10:15). […] Mice were sacrificed after 5 min, lungs were perfused until cleared of blood, and then subjected to recirculating perfusion under temperature-controlled (37° C.) conditions in the presence of the fluorescent indicator Amplex red plus horseradish peroxidase (HRP) in order to monitor the oxidation of Amplex red by H2O2. The fluorescence of aliquots of perfusate was measured at the indicated times and expressed as arbitrary fluorescence units (AFU). The increasing fluorescence with time of perfusion indicates the production of H2O2 reflecting the activation of cellular NADPH oxidase (NOX2).
The lungs were removed from mice and studied in an isolated system. The slope of the lines indicates the production of oxidants (H2O2).

[3] = tested on: ROS production in lung; experiment: Lung ROS production (DFF-DA fluorescence) after IT LPS; assay type: in vivo, mouse; settings: PIP-2 with IT LPS 5 μg/g; 6, 12 and 24 h
Procedure: FIGS. 9A and 9B: PIP-2 inhibits the increased lung aiPLA2 activity and increased ROS generation after LPS administration. LPS (5 μg/g body weight) was administered by intratracheal (IT) instillation along with liposomes alone (labeled as LPS) or with PIP-2 in liposomes (labeled as +PIP-2). Control was liposomes alone without LPS (labeled as control). Mice were sacrificed at 6, 12, or 24 h after LPS and lungs were perfused in situ for 15 min with saline solution containing the fluorophore difluorofluoroscein diacetate (DFF-DA). Lungs then were homogenized and assayed for: FIG. 9A: aiPLA2 activity; FIG. 9B: fluorescence of the lung homogenate as an index of ROS production. Results are mean±SE for N=3 for A and N=4 for B. *P<0.05 vs. Control and +PIP-2 at the same time point; ΔP<0.05 vs. corresponding value at 6 h.
To determine lung ROS production after LPS treatment, intact mice were treated with LPS (5 μg/g)±PIP-2 (2 μg/g). Mice were anesthesized at 6, 12, or 24 h after treatment with LPS and lungs in situ were cleared of blood and then perfused for […] with saline solution containing the fluorophore DFF-DA that is hydrolyzed intracellularly to DFF. Lungs were then homogenized, and fluorescence of the homogenate was measured at Ex 495 nm, Em 525 nm. Lung fluorescence was expressed as AFU per minute of perfusion with normalization to the mouse body wt.

[4] = target: T2, recombinant hPrdx6 (Homo sapiens, UniProt P30041); experiment: aiPLA2 activity of recombinant human Prdx6 in presence of peptide; assay type: biochemical; settings: for aiPLA2 activity of human recombinant protein: Table 2, hPrdx6 only 92.0
T2 sequence (P30041 1-224): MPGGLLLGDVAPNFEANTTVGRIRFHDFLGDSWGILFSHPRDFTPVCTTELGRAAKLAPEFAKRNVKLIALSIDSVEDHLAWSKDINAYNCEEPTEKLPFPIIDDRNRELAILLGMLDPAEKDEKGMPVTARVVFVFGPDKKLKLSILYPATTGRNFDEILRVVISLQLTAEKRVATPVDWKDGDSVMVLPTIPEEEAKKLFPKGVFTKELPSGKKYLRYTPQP

[5] = tested on: mice, high dose IT LPS; experiment: High dose intratracheal LPS (15 μg/g): survival and lung injury of survivors
Procedure: LPS (15 mg/g body wt) was given to all mice either by: FIG. 7A: intratracheal (IT) or FIG. 7B: intraperitoneal (IP) injection. PIP-2 in liposomes or placebo (liposomes alone) was administered intravenously (IV) 12 h after LPS (this is treatment time zero) and then at 12 or 24 h intervals for a total of 5 doses as indicated by the arrows. FIG. 7A: PIP-2 at 2 μg/g body wt; N=14 for each group. FIG. 7B: PIP-2 at 2 or 20 μg/g body wt.; Placebo group, n=8; PIP-2 2 mg group, n=7; PIP-2 20 mg group, n=10.
Anesthesized mice were administered LPS (either 5 or 15 μgig body weight) in 20 μl saline that was instilled into the lung through an endotracheal catheter placed at the level of the tracheal carina. […] PIP-2 in liposomes was suspended in 20 μl saline for IV or IT injection. For studies to evaluate the effect of PIP-2 at zero time, LPS administration was followed by liposomes±PIP-2 also given by IT instillation. For studies to evaluate the effect of PIP-2 administered at later times after LPS, the liposomes±PIP-2 were given by injection into a retinal artery. This shift in route of administration was used to minimize damage to the mouse trachea that could occur with repeated tracheostomy and lead to untoward effects on the lung. […] We gave the second dose of PIP-2 at 12 h to be certain of maximal coverage and then went to every 24 h for PIP-2 administration. For the model of sepsis, LPS (15 μg/g body wt.) in 20 μl saline was injected intraperitoneally and mice were treated with IV PIP-2 at either 2 or 20 μg/g body wt; note that the initial dose of PIP-2 for this sepsis model was IV, not IT. We used the same times of PIP-2 administration in the sepsis model as were used for the IT LPS model. After recovery from anesthesia, all mice were maintained in the vivarium with access ad lib to food and water.
At the end of each experiment with IT LPS (at either 24 or 120 h), surviving mice were sacrificed by exsanguination under anesthesia. Lungs in situ were cleared of blood by perfusion through the pulmonary artery and then were lavaged through the trachea with saline. The lung was then removed from the thorax for tissue assays. We evaluated the effect of LPS on lung injury by measuring the number of nucleated cells and the protein content in the lung bronchoalveolar lavage fluid (BALf), the lung wet to dry lung weight ratio using the left upper lobe of lung, and thiobarbituric-acid reactive products (TBARS), 8-isoprostanes, and protein carbonyls in the lung homogenate to determine the oxidation of lung tissue lipid and protein components. For studies of mouse mortality, survival plots were constructed using the Kaplan-Meier estimator.
The survival data is plotted with the initial PIP-2 treatment as 0 time; LPS was administered 12 h before PIP-2 (−12 h that is off of the graph in FIG. 7A and FIG. 7B).
Mice were instilled IT with LPS (15 μg/g wt); PIP-2 (2 μg/g body wt) in liposomes was injected (IV) at the times shown in FIG. 7A. Five of the surviving mice were sacrificed at 120 h after LPS; control mice were given liposomes but not LPS. […] Values are mean±SE for N=4 for control and N=5 for LPS+PIP-2.

[6] = tested on: C57Bl/6 mice, LPS-mediated lung injury; experiment: Acute lung injury after intratracheal LPS (5 μg/g), lungs evaluated at 24 h; assay type: in vivo, mouse; settings: LPS 5 μg/g IT, sacrifice at 24 hrs

With LHDFRHQIL (Inhibitory peptide.) [PIP-2] the “aiPLA2 activity of mouse lung homogenate” value ([1]; IT, 0 h post injection) was 8.84 ± 0.35 nmol/hr/mg protein, the “aiPLA2 activity, figure in parentheses (0 h = 100)” value (shortened to “aiPLA2 activity, figure”) ([1]; IT, 0 h post injection) was 100 and the “aiPLA2 activity of mouse lung homogenate” value ([1]; IT, 4 h post injection) was 1.56 ± 0.03 nmol/hr/mg protein. For the same sequence, the “aiPLA2 activity, figure” value ([1]; IT, 4 h post injection) was 18, the “aiPLA2 activity of mouse lung homogenate” value ([1]; IT, 12 h post injection) was 1.61 ± 0.04 nmol/hr/mg protein and the “aiPLA2 activity, figure” value ([1]; IT, 12 h post injection) was 18. For the same sequence, the “aiPLA2 activity of mouse lung homogenate” value ([1]; IT, 24 h post injection) was 1.63 ± 0.14 nmol/hr/mg protein, the “aiPLA2 activity, figure” value ([1]; IT, 24 h post injection) was 18 and the “aiPLA2 activity of mouse lung homogenate” value ([1]; IT, 36 h post injection) was 2.04 ± 0.04 nmol/hr/mg protein. For the same sequence, the “aiPLA2 activity, figure” value ([1]; IT, 36 h post injection) was 27, the “aiPLA2 activity of mouse lung homogenate” value ([1]; IT, 48 h post injection) was 2.95 ± 0.10 nmol/hr/mg protein and the “aiPLA2 activity, figure” value ([1]; IT, 48 h post injection) was 33. For the same sequence, the “aiPLA2 activity of mouse lung homogenate” value ([1]; IT, 72 h post injection) was 8.78 ± 0.18 nmol/hr/mg protein, the “aiPLA2 activity, figure” value ([1]; IT, 72 h post injection) was 99 and the “aiPLA2 activity of mouse lung homogenate” value ([1]; IV, 0 h post injection) was 8.85 ± 0.3 nmol/hr/mg protein. For the same sequence, the “aiPLA2 activity, figure” value ([1]; IV, 0 h post injection) was 100, the “aiPLA2 activity of mouse lung homogenate” value ([1]; IV, 4 h post injection) was 1.45 ± 0.07 nmol/hr/mg protein and the “aiPLA2 activity, figure” value ([1]; IV, 4 h post injection) was 16. For the same sequence, the “aiPLA2 activity of mouse lung homogenate” value ([1]; IV, 12 h post injection) was 1.58 ± 0.04 nmol/hr/mg protein, the “aiPLA2 activity, figure” value ([1]; IV, 12 h post injection) was 18 and the “aiPLA2 activity of mouse lung homogenate” value ([1]; IV, 24 h post injection) was 1.77 ± 0.11 nmol/hr/mg protein. The “aiPLA2 activity, figure” value ([1]; IV, 24 h post injection) was 20, the “aiPLA2 activity of mouse lung homogenate” value ([1]; IV, 36 h post injection) was 2.14 ± 0.03 nmol/hr/mg protein and the “aiPLA2 activity, figure” value ([1]; IV, 36 h post injection) was 24. For the same sequence, the “aiPLA2 activity of mouse lung homogenate” value ([1]; IV, 48 h post injection) was 3.03 ± 0.05 nmol/hr/mg protein, the “aiPLA2 activity, figure” value ([1]; IV, 48 h post injection) was 34 and the “aiPLA2 activity of mouse lung homogenate” value ([1]; IV, 72 h post injection) was 8.49 ± 0.10 nmol/hr/mg protein. For the same sequence, the “aiPLA2 activity, figure” value ([1]; IV, 72 h post injection) was 96, the “time at which recovery from inhibition began” value ([1]; PIP-2 in liposomes IV or IT) was roughly 36 h and the “time at which recovery from inhibition was complete” value ([1]; PIP-2 in liposomes IV or IT) was no more than 48 h. For the same sequence, the “time to maximal inhibition of Prdx6 activity of lung homogenate” value ([1]; PIP-2 in liposomes IV or IT) was no more than 4 h, the “calculated ½ time for recovery of Prdx6-PLA2 activity” value ([1]; PIP-2 in liposomes, IT or IV) was roughly 50 h and the “Prdx6-PLA2 activity of mouse lung homogenate” value ([1]; IT, lungs lavaged prior to assay, 0 post injection) was 8.1 ± 0.3 nmol/hr/mg protein. For the same sequence, the “Prdx6-PLA2 activity of mouse lung homogenate” value ([1]; IT, lungs lavaged, 24 hr post injection) was 1.2 ± 0.02 nmol/hr/mg protein, the “Prdx6-PLA2 activity of mouse lung homogenate” value ([1]; IT, lungs lavaged, 48 hr post injection) was 3.0 ± 0.2 nmol/hr/mg protein and the “Prdx6-PLA2 activity of mouse lung homogenate” value ([1]; IT, lungs lavaged, 72 hr post injection) was 8.3 ± 0.9 nmol/hr/mg protein. The “generation of H2O2” value ([2]; PIP-2 2 ug/g in liposomes) was “markedly inhibits”, the “effect on the rate of H2O2 production” value ([2]; PIP-2 2 ug/g in saline) was “no effect” and the “ROS-generated fluorescence of lung after LPS” value [3] was “dramatic decrease”. The “aiPLA2 activity of human recombinant protein” value [4] was 29.9 nmol/min/mg prot, the “aiPLA2 activity of human recombinant Prdx6” value ([4]; Table 3, hPrdx6 only 99.91) was 26.18 nmol/min/mg prot and the “lungs of PIP-2 treated mice that survive high dose LPS” value ([5]; LPS 15 μg/g IT or IP, PIP-2 2 or 20 μg/g IV, 5 days after LPS) was “normal lungs”. For the same sequence, the BALf cells ([5]; LPS 15 μg/g IT, PIP-2 2 μg/g IV in liposomes 5 doses, survivors sacrificed 120 h after LPS, control 0.95) was 0.96 ± 0.40 ×10^4/g body wt, the Wet/Dry ratio ([5]; LPS 15 μg/g IT, PIP-2 2 μg/g IV, survivors at 120 h after LPS, control 5.59) was 5.34 ± 0.03 and the Protein carbonyls ([5]; LPS 15 μg/g IT, PIP-2 2 μg/g IV, survivors at 120 h after LPS, control 5.6) was 5.6 ± 0.2 nmol/mg prot. The 8-Isoprostanes ([5]; LPS 15 μg/g IT, PIP-2 2 μg/g IV, survivors at 120 h after LPS, control 34) was 34 ± 3 pmol/mg prot, the BALf protein ([5]; LPS 15 μg/g IT, PIP-2 2 μg/g IV, survivors at 120 h after LPS, control 75) was 78 ± 2.2 μg/g wt and the TBARS ([5]; LPS 15 μg/g IT, PIP-2 2 μg/g IV, survivors at 120 h after LPS, control 76) was 77 ± 1 pmol/mg prot. The mortality ([5]; LPS 15 μg/g IT, PIP-2 2 μg/g IV at 12, 24, 48, 72, 96 h after LPS, at 36 h after start of treatment, no further mortality, placebo 100% by 48 h) was 17% and the survival ([5]; LPS 15 μg/g IT, PIP-2 2 μg/g IV, at 36 h after start of treatment) was 83%.

LYEIKHQIL (Inhibitory peptide.) [PIP-4] was tested, and the “aiPLA2 activity of mouse lung” value ([1]; alone, no liposomes) was 8.43 ± 0.23 (n = 3) nmol/hr/mg prot, the “aiPLA2 activity of mouse lung” value ([1]; in liposomes) was 1.55 ± 0.02 (n = 3) nmol/hr/mg prot and the “Prdx6-PLA2 activity of mouse lung homogenate” value ([1]; IV, 0 post injection) was 8.0 ± 0.7 nmol/hr/mg protein. For the same sequence, the “Prdx6-PLA2 activity of mouse lung homogenate” value ([1]; IV, 24 hr post injection) was 1.1 ± 0.02 nmol/hr/mg protein, the “Prdx6-PLA2 activity of mouse lung homogenate” value ([1]; IV, 48 hr post injection) was 2.8 ± 0.2 nmol/hr/mg protein and the “Prdx6-PLA2 activity of mouse lung homogenate” value ([1]; IV, 72 hr post injection) was 7.8 ± 1.2 nmol/hr/mg protein. For the same sequence, the “Prdx6-PLA2 activity of mouse lung homogenate” value ([1]; IV, 96 hr post injection) was 8.1 ± 0.2 nmol/hr/mg protein, the “aiPLA2 activity of human recombinant protein” value [4] was 32.3 nmol/min/mg prot and the protein ([6]; PIP-4 2 μg/g IT @0 hrs, LPS alone 166) was 77 ± 3 μg protein/g wt. The TBARS ([6]; PIP-4 2 μg/g IT @0 hrs, LPS alone 374) was 78 ± 4 pmol/mg prot, the TBARS ([6]; PIP-4 2 μg/g IV @12 hr) was 84 ± 2 pmol/mg prot and the “Wet/Dry lung weight ratio” value ([6]; PIP-4 2 μg/g IV @12 hr) was 5.94 ± 0.05.
